From PMC11602165, “A bacterial transcription activator dedicated to the expression of the enzyme catalyzing the first committed step in fatty acid biosynthesis” (Nucleic Acids Research, 2024)
Values joined by “and” are separate entries in the source; they are usually repeats but may differ in a detail not shown here. Equal values may be shown once.

Columns and labels:
[1] = target: AccR (LysR-type transcriptional regulator, SO_0839) (Shewanella oneidensis, UniProt Q8EIK0); assay: ITC in HEPES buffer (Kd […]); also MST ([…]); no binding seen by ITC in Tris buffer
[2] = target: the molecule itself; assay: SEC; His-tagged recombinant AccR purified from E. coli run on a Superdex 200HR 10/30 column (FPLC); two peaks with estimated molecular weights of ~67 and ~140 kDa
[3] = target: the molecule itself; assay: crystal structure; AccR EBD (residues 86-303), apo form, hanging-drop vapor diffusion, 27.5% PEG 4000, 100 mM HEPES pH 7.0, 20°C; space group C2, one dimer in the asymmetric unit

`CC(=O)SCCNC(=O)CCNC(=O)[C@H](O)C(C)(C)COP(=O)(O)OP(=O)(O)OC[C@H]1O[C@@H](n2cnc3c(N)ncnc32)[C@H](O)[C@@H]1OP(=O)(O)O` [acetyl-CoA] showed a Kd [1] of 8.4 ± 1.3 µM.

B1: AccR (SO_0839), LysR-type transcriptional regulator, His6-tagged recombinant (natural protein, Shewanella oneidensis, UniProt Q8EIK0 1-303, looked up)
chain: MPDLNGMMLFAAVVRAKGFSQAARETGHPKSTISRKIAQLEEELGVRLLQRDTRNLSLTQVGALFYQHCDSIRNEVEAAKAVIESTHDDVSGSLRIAIPVSFSQELIANLCSGFMRLYPNVELDVQFTDNDIGLVGEGYDIAIKYGPLQSSDLVARLLFERQPILVASPGYLKTRGTPATPKELSDHSGILLGTSRSAPIWPLGKGTRKTMVSFQRKVRVNSPIMVKQLALDDFGIAMLSNSACKTELANGQLVPILQEWPMEPFKVYGVYSSRRQLATNISAFLDFFVKRFSSQESLQSLMG
notes: AccR (SO_0839), LTTR of 303 amino acids, Shewanella oneidensis; full-length; calculated molecular weight of the recombinant protein 35.6 kDa; The methods describe growth of the BL21(DE3) cells in M9 medium supplemented with selenomethionine; also called ACCase regulator; His-tagged AccR; source: E. coli BL21(DE3), pET-28a, purified (Ni-NTA, size-exclusion chromatography); not shown: His6, …
With B1 the “stoichiometry N” value [2] was 2 and 4.

B2: AccR effector-binding domain (EBD, residues 86-303) (domain or fragment, Shewanella oneidensis, UniProt Q8EIK0 86-303, looked up)
chain: THDDVSGSLRIAIPVSFSQELIANLCSGFMRLYPNVELDVQFTDNDIGLVGEGYDIAIKYGPLQSSDLVARLLFERQPILVASPGYLKTRGTPATPKELSDHSGILLGTSRSAPIWPLGKGTRKTMVSFQRKVRVNSPIMVKQLALDDFGIAMLSNSACKTELANGQLVPILQEWPMEPFKVYGVYSSRRQLATNISAFLDFFVKRFSSQESLQSLMG
notes: the model holds residues 89-302 (subunit A) and 90-300 (subunit B); The methods describe expression in M9 medium with selenomethionine, but also say that diffraction data were collected with native protein crystals; also called AccR EBD; regulatory domain; source: E. coli BL21(DE3), pET-28a, purified (Ni-NTA, size-exclusion chromatography)
B2: binds [3].
